In the supplement of paper PMC12855868:

B1: library; numbered along this chain (parent)
chain: MAAAGGARLLRAASAVLGGPAGRWLHHAGSRAGSSGLLRNRGPGGSAEASRSLSVSARARSSSEDKITVHFINRDGETLTTKGKVGDSLLDVVVENNLDIDGFGACEGTLACSTCHLIFEDHIYEKLDAITDEENDMLDLAYGLTDRSRLGCQICLTKSMDNMTVRVPETVADARQSIDVGKTS

Variants of: B1
Test: scaled log2 fold change in cell abundance, elesclomol vs control (0 = silent mean, 1 = nonsense mean) (scaled log2 ratio); higher = higher viability under elesclomol (loss of FDX1 cuproptosis function)
Details: glucose 10 mM
[1] = with ABC1 FDX1 KO, elesclomol 5 nM, 14 days
[2] = with HEK293T FDX1 KO, elesclomol 40 nM, 11 days
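Also: variant abundance is its share of total variant reads in each endpoint sample, from next-generation sequencing of the integrated ORF PCR-amplified out of genomic DNA.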

Row | Variant | scaled log2 fold change [1] | scaled log2 fold change [2]
1 | I118N | 0.286 | -0.696
2 | I118V | -0.103 | -0.548
3 | I118W | 0.135 | 0.474
4 | I118Y | 0.0377 | -0.427
5 | I118S | 0.159 | -0.594
6 | I118A | 0.0431 | -0.147
7 | I118H | 0.249 | 0.918
8 | I118K | 0.00843 | 0.202
9 | I118C | -0.313 | -0.183
10 | I118T | -0.289 | 0.934
11 | I118G | 0.403 | -0.108
12 | I118Q | 0.0897 | 0.252
13 | S113H | 0.269 | -0.884
14 | S113I | 0.189 | -0.397
15 | S113V | 0.242 | -0.434
16 | S113R | 0.116 | 0.165
17 | S113W | 0.446 | 0.762
18 | S113E | 0.672 | -0.214
19 | S113C | -0.028 | 0.699
20 | S113Q | -0.139 | -0.137

Row | Variant | scaled log2 fold change [1] | scaled log2 fold change [2]
21 | S113K | 0.372 | 0.195
22 | S113T | 0.186 | 0.232
23 | S113P | 1.03 | 1.16
24 | S113M | 0.304 | –
25 | S113D | 0.394 | 0.644
26 | S113N | -0.0206 | 0.213
27 | S113A | 0.165 | -0.251
28 | S113Y | 0.038 | 0.0184
29 | S113G | 0.021 | 0.00491
30 | S113L | 0.0304 | 0.215
31 | S113F | 0.0249 | 0.717
32 | L117F | 0.176 | 0.206
33 | L117C | 0.0758 | 0.451
34 | L117Q | 1.05 | 0.896
35 | L117E | 1.05 | 0.745
36 | L117A | 0.00712 | 0.115
37 | L117W | 1.03 | 0.891
38 | L117H | 1.03 | 1.35
39 | L117R | 1.14 | 0.855
40 | L117N | 1.04 | 0.559

Row | Variant | scaled log2 fold change [1] | scaled log2 fold change [2]
41 | L117D | 1.19 | 0.855
42 | L117Y | 1 | 1.02
43 | L117P | 1.02 | 1.03
44 | L117I | -0.11 | -0.196
45 | L117V | 0.152 | 0.867
46 | L117K | 1.07 | 1.03
47 | L117G | 0.483 | 0.224
48 | L117T | 0.178 | 0.185
49 | L117M | 0.167 | -0.247
50 | L117S | 0.36 | -1.36
51 | C112N | 0.953 | 1.22
52 | C112T | 1.16 | 0.679
53 | C112D | 0.906 | 2.02
54 | C112M | 1.09 | 1.24
55 | C112G | 1.15 | 1.18
56 | C112V | 1.21 | 1.04
57 | C112Y | 1.09 | 1.3
58 | C112L | 0.979 | 1.26
